In this assay the target is GST-SHP-1 ΔN+CSH2 (amino acids 276-end) (human) (UniProt P29350). Briefly: GST pulldown (FIG. 20B).
Chain of GST-SHP-1 ΔN+CSH2 (amino acids 276-end) (human) (P29350 276-595, stated change not applied): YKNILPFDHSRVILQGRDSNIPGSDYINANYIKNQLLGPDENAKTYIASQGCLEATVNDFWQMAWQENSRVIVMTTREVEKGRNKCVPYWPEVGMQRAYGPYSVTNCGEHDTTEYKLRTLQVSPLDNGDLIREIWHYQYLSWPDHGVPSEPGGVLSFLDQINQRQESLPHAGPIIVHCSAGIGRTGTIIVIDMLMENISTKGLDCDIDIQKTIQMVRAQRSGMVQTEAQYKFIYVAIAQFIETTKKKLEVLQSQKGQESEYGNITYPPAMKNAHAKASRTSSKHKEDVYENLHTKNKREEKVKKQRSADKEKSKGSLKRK

B1: His-GIV-CT (aa 1660-1870), wild-type, not phosphorylated (mock- or sham-treated) (protein, not shown: small tags and cut ends)
chain: SETLESRHHKIKTGSPGSEVVTLQQFLEESNKLTSVQIKSSSQENLLDEVMKSLSVSSDFLGKDKPVSCGLARSVSGKTPGDFYDRRTTKPEFLRPGPRKTEDTYFISSAGKPTPGTQGKIKLVKESSLSRQSKDSNPYATLPRASSVISTAEGTTRRTSIHDFLTKDSRLPISVDSPPAAADSNTTAASNVDKVQESRNSKSRSREQQSS
B1 showed a reduction of binding against full length SHP-1 of 80%.

The record behind these values is patent publication US20140234872A1.
